Data on 1 substance can be found in publication PMC9159934.

The experiment deals with BsaXI specificity subunit, WT: TRD1-CR1-TRD2-CR2 (Bacillus stearothermophilus 25B (Geobacillus sp. 25B)). Nature of the experiment: co-purification by chromatography + SDS-PAGE band densitometry; RM and S expressed separately as intein-CBD fusions, combined and purified together over chitin, DEAE, heparin, Source 15S, Source 15Q and gel filtration (Superdex 75); RM:S ratio estimated from molecular mass and band intensity on SDS-PAGE (Bio Rad gel imaging software).

Usually stoichiometry N stands for a count of units in the complex or per binding partner. On to “BsaXI restriction-modification subunit (RM fusion) (enzyme)”, for which the stoichiometry N is 2 RM per S.
